Measurements taken from patent publication US5723436, “Calcineurin interacting protein compositions and methods” (The Board of Trustees of the Leland Stanford Junior …, dated 1998).

Molecular target: GAD (GAL4 activation domain alone, from pGAD) (yeast, UniProt P04386)
Experiment: yeast GAL4 two-hybrid, fusion tested against the complementary GAL4 domain not fused to a second protein

Binder | binding result
GBT-A2 (G4BD-CNA2) (other) MKLLSSIEQACDICRLKKLKCSKEKPKCAKCLKNNWECRYSPKTKRSPLTRAHLTEVESRLERLEQLFLLIFPREDLDMILKMDSLQDIKALLTGLFVQDNVNKDAVTDRLASVETDMPLTLRQHRISATSSSEESSNKGQRQLTVSMSSDAIRNTEQINAAIKIIENKTERPQSSTTPIDSKASTVAAANSTATETSRDLTQYTLDDGRVVSTNRRIMNKVPAITSHVPTDEELFQPNGIPRHEFLRDHFKREGKLSAAQAARIVTLATELFSKEPNLISVPAPITVCGDIHGQYFDLLKLFEVGGDPATTSYLFLGDYVDRGSFSFECLIYLYSLKLNFNDHFWLLRGNHECKHLTSYFTFKNEMLHKYNLDIYEKCCESFNNLPLAALMNGQYLCVHGGISPELNSLQDINNLNRFREIPSHGLMCDLLWADPIEEYDEVLDKDLTEEDIVNSKTMVPHHGKMAPSRDMFVPNSVRGCSYAFTYRAACHFLQETGLLSIIRAHEAQDAGYRMYKNTKTLGFPSLLTLFSAPNYLDTYNNKAAILKYENNVMNIRQFNMTPHPYWLPDFMDVFTWSLPFVGEKVTEMLVAILNICTEDELENDTPVIEELVGTDKKLPQAGKSEATPQPATSASPKHASILDDEHRRKALRNKILAVAKVSRMYSVLREETNKVQFLKDHNSGVLPRGALSNGVKGLDEALSTFERARKHDLINEKLPPSLDELKNENKKYYEKVWQKVHEHDAKNDSK | no binding
GBT-A1 (G4BD-CNA1) (other) MKLLSSIEQACDICRLKKLKCSKEKPKCAKCLKNNWECRYSPKTKRSPLTRAHLTEVESRLERLEQLFLLIFPREDLDMILKMDSLQDIKALLTGLFVQDNVNKDAVTDRLASVETDMPLTLRQHRISATSSSEESSNKGQRQLTVSMSKDLNSSRIKIIKPNDSYIKVDRKKDLTKYELENGKVISTKDRSYASVPAITGKIPSDEEVFDSKTGLPNHSFLREHFFHEGRLSKEQAIKILNMSTVALSKEPNLLKLKAPITICGDIHGQYYDLLKLFEVGGDPAEIDYLFLGDYVDRGAFSFECLIYLYSLKLNNLGRFWMLRGNHECKHLTSYFTFKNEMLHKYDMEVYDACCRSFNVLPLAALMNGQYFCVHGGISPELKSVEDVNKINRFREIPSRGLMCDLLWADPVENYDDARDGSEFDQSEDEFVPNSLRGCSFAFTFKASCKFLKANGLLSIIRAHEAQDAGYRMYKNNKVTGFPSLITMFSAPNYLDTYHNKAAVLKYEENVMNIRQFHMSPHPYWLPDFMDVFTWSLPFVGEKVTSMLVSILNICSEQELDPESEPKAAEETVKARANATKETGTPSDEKASSAILEDETRRKALRNKILAIAKVSRMFSVLREESEKVEYLKTMNAGVLPRGALARGTEGLNETLSTFEKARKEDLINEKLPPSLSEVEQEKIKYYEKILKGAEKKPQL | no binding
